Reference: patent publication US20180334702A1 (SYSMEX, published 2018)
No end group written: not given here. *: point of attachment. aminohexane = linker joining biotin to the N-terminal residue; Biotin = O=C1N[C@H]2[C@H](CS[C@H]2CCCCC(=O)*)N1

Each binder was assayed against T1, CDK1/cyclin A2 (UniProt P06493 1-297; P20248 1-432, limits assumed) (assay: cell-based or functional assay).
T1 sequence (P06493 whole entry, chain 1 of 2): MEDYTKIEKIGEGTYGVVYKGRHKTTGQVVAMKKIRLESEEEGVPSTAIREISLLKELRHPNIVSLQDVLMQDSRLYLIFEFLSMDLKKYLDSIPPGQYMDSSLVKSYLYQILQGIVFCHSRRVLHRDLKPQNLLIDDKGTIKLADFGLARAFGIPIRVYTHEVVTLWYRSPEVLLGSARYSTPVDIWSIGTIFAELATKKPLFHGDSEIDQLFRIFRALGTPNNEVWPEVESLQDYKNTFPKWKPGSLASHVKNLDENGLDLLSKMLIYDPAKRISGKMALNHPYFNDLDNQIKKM
T1 sequence (P20248 whole entry, chain 2 of 2): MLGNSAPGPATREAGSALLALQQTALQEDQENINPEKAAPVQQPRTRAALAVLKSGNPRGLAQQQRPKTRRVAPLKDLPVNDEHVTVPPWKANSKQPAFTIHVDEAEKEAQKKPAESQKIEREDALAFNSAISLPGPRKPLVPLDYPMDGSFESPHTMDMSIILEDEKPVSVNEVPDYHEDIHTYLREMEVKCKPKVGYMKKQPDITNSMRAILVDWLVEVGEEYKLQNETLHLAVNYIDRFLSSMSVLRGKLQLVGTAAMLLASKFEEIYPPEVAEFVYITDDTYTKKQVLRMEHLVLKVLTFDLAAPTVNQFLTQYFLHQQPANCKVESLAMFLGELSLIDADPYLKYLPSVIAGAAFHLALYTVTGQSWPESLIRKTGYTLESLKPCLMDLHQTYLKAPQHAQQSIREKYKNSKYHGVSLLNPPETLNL

Question: How did the “relative value of the luminescence intensity (Comparative Polypeptide 2 = 1.00)” value (from here on “relative value”) turn out when {Biotin-aminohexane}-RRRFRPASPLRGPPK [Comparative Polypeptide 2] was run?
Answer: Its value is 1 relative value.

Question: Which “relative value” value does the source give for {Biotin-aminohexane}-GMPWSPNPWWRGGGG [Polypeptide 1] here?
Answer: The value was 2.24 relative value.

Question: How did the “relative value” value turn out when {Biotin-aminohexane}-PYKISEGLPTPTKMTPRSRI [Comparative Polypeptide 1] was run?
Answer: The value was 1.63 relative value.

The binders below were run against T2, CDK4/cyclin D3 (UniProt P11802 1-303; P30281 1-292) (assay: cell-based or functional assay).
T2 sequence (P11802 whole entry, chain 1 of 2): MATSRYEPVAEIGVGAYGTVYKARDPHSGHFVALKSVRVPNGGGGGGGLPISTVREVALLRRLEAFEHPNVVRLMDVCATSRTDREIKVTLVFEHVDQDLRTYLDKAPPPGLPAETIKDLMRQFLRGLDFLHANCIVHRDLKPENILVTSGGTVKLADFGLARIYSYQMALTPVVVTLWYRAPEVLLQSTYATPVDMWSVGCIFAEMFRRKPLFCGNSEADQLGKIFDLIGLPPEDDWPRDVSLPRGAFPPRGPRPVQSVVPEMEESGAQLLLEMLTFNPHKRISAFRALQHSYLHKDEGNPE
T2 sequence (P30281 whole entry, chain 2 of 2): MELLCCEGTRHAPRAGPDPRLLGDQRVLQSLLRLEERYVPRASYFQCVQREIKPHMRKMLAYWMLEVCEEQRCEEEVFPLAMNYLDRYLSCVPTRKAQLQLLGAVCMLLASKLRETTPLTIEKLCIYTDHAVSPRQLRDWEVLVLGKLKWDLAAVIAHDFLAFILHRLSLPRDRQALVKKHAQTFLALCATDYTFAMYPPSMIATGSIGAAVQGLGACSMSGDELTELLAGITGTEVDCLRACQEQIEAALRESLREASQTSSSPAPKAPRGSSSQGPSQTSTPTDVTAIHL

Question: Which “relative value” value does the source give for {Biotin-aminohexane}-RRRFRPASPLRGPPK [Comparative Polypeptide 2] here?
Answer: The value was 1 relative value.

Question: Which “relative value” value does the source give for {Biotin-aminohexane}-GMPWSPNPWWRGGGG [Polypeptide 1] here?
Answer: Its value is 18.6 relative value.

Question: How did the “relative value” value turn out when {Biotin-aminohexane}-PYKISEGLPTPTKMTPRSRI [Comparative Polypeptide 1] was run?
Answer: The value was 0.15 relative value.

What follows are binders tested against T3, CDK2/cyclin E1 (UniProt P24941 1-298; P24864 1-410) (assay: cell-based or functional assay).

Question: How did the “relative value” value turn out when {Biotin-aminohexane}-RRRFRPASPLRGPPK [Comparative Polypeptide 2] was run?
Answer: The value was 1 relative value.

Question: For {Biotin-aminohexane}-GMPWSPNPWWRGGGG [Polypeptide 1], which “relative value” value is on record?
Answer: The value was 6.12 relative value.

Question: {Biotin-aminohexane}-PYKISEGLPTPTKMTPRSRI [Comparative Polypeptide 1] was tested. Which “relative value” value did it give?
Answer: Its value is 6.44 relative value.

The binders below were run against T4, CDK6/cyclin D3 (UniProt Q00534 1-326; P30281 1-292) (assay: cell-based or functional assay).
T4 sequence (Q00534 whole entry, chain 1 of 2): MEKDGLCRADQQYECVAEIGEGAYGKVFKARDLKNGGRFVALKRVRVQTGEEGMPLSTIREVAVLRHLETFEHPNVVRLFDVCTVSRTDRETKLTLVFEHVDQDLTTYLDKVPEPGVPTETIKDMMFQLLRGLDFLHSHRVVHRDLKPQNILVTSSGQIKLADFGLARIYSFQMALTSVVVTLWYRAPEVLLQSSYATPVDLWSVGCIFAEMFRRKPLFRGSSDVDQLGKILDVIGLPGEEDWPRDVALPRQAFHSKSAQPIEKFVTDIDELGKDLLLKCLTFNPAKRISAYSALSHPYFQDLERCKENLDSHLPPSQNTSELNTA
T4 sequence (P30281 whole entry, chain 2 of 2): as the sequence (P30281 whole entry, chain 2 of 2) above

Question: {Biotin-aminohexane}-RRRFRPASPLRGPPK [Comparative Polypeptide 2] was tested. Which “relative value” value did it give?
Answer: The value was 1 relative value.

Question: {Biotin-aminohexane}-GMPWSPNPWWRGGGG [Polypeptide 1] was tested. Which “relative value” value did it give?
Answer: Its value is 7.06 relative value.

Question: For {Biotin-aminohexane}-PYKISEGLPTPTKMTPRSRI [Comparative Polypeptide 1], which “relative value” value is on record?
Answer: The value was 0.43 relative value.

Target: T1, CDK1/cyclin A2
Experiment: cell-based or functional assay
Remark: another data set of the same source

Question: How did the “relative luminescence intensity (CDK6 = 100%)” value turn out when {Biotin-aminohexane}-PYKISEGLPTPTKMTPRSRI-NH2 [Comparative Polypeptide 3] was run?
Answer: Its value is 678%.

Question: With {Biotin-aminohexane}-RRRFRPASPLRGPPK [Comparative Polypeptide 2] as the binder, how does the “relative luminescence intensity (CDK6 = 100%)” value read?
Answer: The value was 606%.

Question: How did the “relative luminescence intensity (CDK6 = 100%)” value turn out when {Biotin-aminohexane}-PYKISEGLPTPAKMAPRSRI-NH2 [Comparative Polypeptide 4] was run?
Answer: Its value is 3250%.

Target: T2, CDK4/cyclin D3
Experiment: cell-based or functional assay
Remark: another data set of the same source

Question: {Biotin-aminohexane}-PYKISEGLPTPTKMTPRSRI-NH2 [Comparative Polypeptide 3] was tested. Which “relative luminescence intensity (CDK6 = 100%)” value did it give?
Answer: The value was 7%.

Question: Which “relative luminescence intensity (CDK6 = 100%)” value does the source give for {Biotin-aminohexane}-RRRFRPASPLRGPPK [Comparative Polypeptide 2] here?
Answer: The value was 51%.

Target: T3, CDK2/cyclin E1
Experiment: cell-based or functional assay
Remark: another data set of the same source

Question: With {Biotin-aminohexane}-PYKISEGLPTPTKMTPRSRI-NH2 [Comparative Polypeptide 3] as the binder, how does the “relative luminescence intensity (CDK6 = 100%)” value read?
Answer: The value was 766%.

Question: {Biotin-aminohexane}-RRRFRPASPLRGPPK [Comparative Polypeptide 2] was tested. Which “relative luminescence intensity (CDK6 = 100%)” value did it give?
Answer: Its value is 198%.

Question: How did the “relative luminescence intensity (CDK6 = 100%)” value turn out when {Biotin-aminohexane}-PYKISEGLPTPAKMAPRSRI-NH2 [Comparative Polypeptide 4] was run?
Answer: Its value is 2680%.

Target: T1, CDK1/cyclin A2
Experiment: cell-based or functional assay
Remark: another data set of the same source

Question: Which Luminescence intensity does the source give for {Biotin-aminohexane}-RRRFRPASPLRGPPK [Comparative Polypeptide 2] here?
Answer: Its Luminescence intensity is 4.15e+07.

Question: Which Luminescence intensity does the source give for {Biotin-aminohexane}-GMPWSPNPWWRGGGG [Polypeptide 1] here?
Answer: The Luminescence intensity was 9.32e+07.

Question: For {Biotin-aminohexane}-PYKISEGLPTPTKMTPRSRI [Comparative Polypeptide 1], which Luminescence intensity is on record?
Answer: The Luminescence intensity was 6.76e+07.

Target: T2, CDK4/cyclin D3
Experiment: cell-based or functional assay
Remark: another data set of the same source

Question: With {Biotin-aminohexane}-RRRFRPASPLRGPPK [Comparative Polypeptide 2] as the binder, how does the Luminescence intensity read?
Answer: The Luminescence intensity was 5.44e+06.

Question: Which Luminescence intensity does the source give for {Biotin-aminohexane}-GMPWSPNPWWRGGGG [Polypeptide 1] here?
Answer: Its Luminescence intensity is 1.01e+08.

Question: With {Biotin-aminohexane}-PYKISEGLPTPTKMTPRSRI [Comparative Polypeptide 1] as the binder, how does the Luminescence intensity read?
Answer: Its Luminescence intensity is 811000.

Target: T3, CDK2/cyclin E1
Experiment: cell-based or functional assay
Remark: another data set of the same source

Question: For {Biotin-aminohexane}-RRRFRPASPLRGPPK [Comparative Polypeptide 2], which Luminescence intensity is on record?
Answer: Its Luminescence intensity is 1.62e+07.

Question: With {Biotin-aminohexane}-GMPWSPNPWWRGGGG [Polypeptide 1] as the binder, how does the Luminescence intensity read?
Answer: Its Luminescence intensity is 9.92e+07.

Question: {Biotin-aminohexane}-PYKISEGLPTPTKMTPRSRI [Comparative Polypeptide 1] was tested. Which Luminescence intensity did it give?
Answer: Its Luminescence intensity is 1.04e+08.

Target: T4, CDK6/cyclin D3
Experiment: cell-based or functional assay
Remark: another data set of the same source

Question: For {Biotin-aminohexane}-RRRFRPASPLRGPPK [Comparative Polypeptide 2], which Luminescence intensity is on record?
Answer: Its Luminescence intensity is 1.73e+07.

Question: {Biotin-aminohexane}-GMPWSPNPWWRGGGG [Polypeptide 1] was tested. Which Luminescence intensity did it give?
Answer: Its Luminescence intensity is 1.22e+08.

Question: For {Biotin-aminohexane}-PYKISEGLPTPTKMTPRSRI [Comparative Polypeptide 1], which Luminescence intensity is on record?
Answer: The Luminescence intensity was 7.42e+06.

Target: T1, CDK1/cyclin A2
Experiment: cell-based or functional assay
Remark: another data set of the same source

Question: {Biotin-aminohexane}-GGGKAPLTPKKAK [Comparative Polypeptide 5] was tested. Which “relative luminescence intensity (CDK6 = 100%)” value did it give?
Answer: The value was 143%.

Question: For {Biotin-aminohexane}-LVEMTGLSPRDIRVD [Polypeptide 26], which “relative luminescence intensity (CDK6 = 100%)” value is on record?
Answer: Its value is 295%.

Question: {Biotin-aminohexane}-GGGKAPLTPKDAD [Polypeptide 22] was tested. Which “relative luminescence intensity (CDK6 = 100%)” value did it give?
Answer: Its value is 27%.

Question: How did the “relative luminescence intensity (CDK6 = 100%)” value turn out when {Biotin-aminohexane}-RRRFRPASPLRGPPK [Comparative Polypeptide 2] was run?
Answer: Its value is 318%.

Question: With {Biotin-aminohexane}-GGGRAAPLSPIPHIPR [Comparative Polypeptide 6] as the binder, how does the “relative luminescence intensity (CDK6 = 100%)” value read?
Answer: The value was 119%.

Question: Which “relative luminescence intensity (CDK6 = 100%)” value does the source give for {Biotin-aminohexane}-LVEMTGLSPRVIRVW [Comparative Polypeptide 7] here?
Answer: Its value is 1150%.

Question: {Biotin-aminohexane}-RRRFRPASPLDGPPD [Polypeptide 18] was tested. Which “relative luminescence intensity (CDK6 = 100%)” value did it give?
Answer: The value was 22%.

Target: T2, CDK4/cyclin D3
Experiment: cell-based or functional assay
Remark: another data set of the same source

Question: {Biotin-aminohexane}-GGGKAPLTPKKAK [Comparative Polypeptide 5] was tested. Which “relative luminescence intensity (CDK6 = 100%)” value did it give?
Answer: Its value is 56%.

Question: With {Biotin-aminohexane}-LVEMTGLSPRDIRVD [Polypeptide 26] as the binder, how does the “relative luminescence intensity (CDK6 = 100%)” value read?
Answer: The value was 18%.

Question: {Biotin-aminohexane}-GGGKAPLTPKDAD [Polypeptide 22] was tested. Which “relative luminescence intensity (CDK6 = 100%)” value did it give?
Answer: Its value is 46%.

Question: How did the “relative luminescence intensity (CDK6 = 100%)” value turn out when {Biotin-aminohexane}-RRRFRPASPLRGPPK [Comparative Polypeptide 2] was run?
Answer: The value was 245%.

Question: Which “relative luminescence intensity (CDK6 = 100%)” value does the source give for {Biotin-aminohexane}-GGGRAAPLSPIPHIPR [Comparative Polypeptide 6] here?
Answer: Its value is 190%.

Question: With {Biotin-aminohexane}-LVEMTGLSPRVIRVW [Comparative Polypeptide 7] as the binder, how does the “relative luminescence intensity (CDK6 = 100%)” value read?
Answer: The value was 55%.

Question: Which “relative luminescence intensity (CDK6 = 100%)” value does the source give for {Biotin-aminohexane}-GGGRAAPLSPIDHIPD [Polypeptide 25] here?
Answer: The value was 40%.

Question: With {Biotin-aminohexane}-GGGKAPLTPLDAD [Polypeptide 23] as the binder, how does the “relative luminescence intensity (CDK6 = 100%)” value read?
Answer: Its value is 37%.

Question: {Biotin-aminohexane}-RRRFRPASPLDGPPD [Polypeptide 18] was tested. Which “relative luminescence intensity (CDK6 = 100%)” value did it give?
Answer: Its value is 14%.

Question: For {Biotin-aminohexane}-GGGRAAPLSPDPHIPD [Polypeptide 24], which “relative luminescence intensity (CDK6 = 100%)” value is on record?
Answer: The value was 54%.

Target: T3, CDK2/cyclin E1
Experiment: cell-based or functional assay
Remark: another data set of the same source

Question: How did the “relative luminescence intensity (CDK6 = 100%)” value turn out when {Biotin-aminohexane}-GGGKAPLTPKKAK [Comparative Polypeptide 5] was run?
Answer: Its value is 156%.

Question: Which “relative luminescence intensity (CDK6 = 100%)” value does the source give for {Biotin-aminohexane}-GGGKAPLTPKDAD [Polypeptide 22] here?
Answer: The value was 15%.

Question: With {Biotin-aminohexane}-RRRFRPASPLRGPPK [Comparative Polypeptide 2] as the binder, how does the “relative luminescence intensity (CDK6 = 100%)” value read?
Answer: Its value is 321%.

Question: With {Biotin-aminohexane}-GGGRAAPLSPIPHIPR [Comparative Polypeptide 6] as the binder, how does the “relative luminescence intensity (CDK6 = 100%)” value read?
Answer: Its value is 44%.

Question: {Biotin-aminohexane}-LVEMTGLSPRVIRVW [Comparative Polypeptide 7] was tested. Which “relative luminescence intensity (CDK6 = 100%)” value did it give?
Answer: Its value is 10%.

Question: How did the “relative luminescence intensity (CDK6 = 100%)” value turn out when {Biotin-aminohexane}-GGGRAAPLSPIDHIPD [Polypeptide 25] was run?
Answer: The value was 62%.

Question: Which “relative luminescence intensity (CDK6 = 100%)” value does the source give for {Biotin-aminohexane}-GGGRAAPLSPDPHIPD [Polypeptide 24] here?
Answer: Its value is 54%.

Target: T1, CDK1/cyclin A2
Experiment: cell-based or functional assay
Remark: another data set of the same source

Question: Which “relative reactivity (Polypeptide 3 = 100%)” value does the source give for {Biotin-aminohexane}-GAPWSPDPWDDGGGG [Polypeptide 28] here?
Answer: Its value is 4%.

Question: How did the “relative reactivity (Polypeptide 3 = 100%)” value turn out when {Biotin-aminohexane}-GAPWSPNPWWRGGGG [Polypeptide 3] was run?
Answer: The value was 100%.

Question: {Biotin-aminohexane}-GAPWSPNDWWDGGGG [Polypeptide 27] was tested. Which “relative reactivity (Polypeptide 3 = 100%)” value did it give?
Answer: Its value is 13%.

Target: T2, CDK4/cyclin D3
Experiment: cell-based or functional assay
Remark: another data set of the same source

Question: How did the “relative reactivity (Polypeptide 3 = 100%)” value turn out when {Biotin-aminohexane}-GAPWSPDPWDDGGGG [Polypeptide 28] was run?
Answer: Its value is 50%.

Question: How did the “relative reactivity (Polypeptide 3 = 100%)” value turn out when {Biotin-aminohexane}-GAPWSPNPWWRGGGG [Polypeptide 3] was run?
Answer: Its value is 100%.

Question: With {Biotin-aminohexane}-GAPWSPNDWWDGGGG [Polypeptide 27] as the binder, how does the “relative reactivity (Polypeptide 3 = 100%)” value read?
Answer: Its value is 37%.

Target: T3, CDK2/cyclin E1
Experiment: cell-based or functional assay
Remark: another data set of the same source

Question: {Biotin-aminohexane}-GAPWSPDPWDDGGGG [Polypeptide 28] was tested. Which “relative reactivity (Polypeptide 3 = 100%)” value did it give?
Answer: Its value is 13%.

Question: Which “relative reactivity (Polypeptide 3 = 100%)” value does the source give for {Biotin-aminohexane}-GAPWSPNPWWRGGGG [Polypeptide 3] here?
Answer: Its value is 100%.

Question: With {Biotin-aminohexane}-GAPWSPNDWWDGGGG [Polypeptide 27] as the binder, how does the “relative reactivity (Polypeptide 3 = 100%)” value read?
Answer: The value was 20%.

Target: T4, CDK6/cyclin D3
Experiment: cell-based or functional assay
Remark: another data set of the same source

Question: {Biotin-aminohexane}-GAPWSPDPWDDGGGG [Polypeptide 28] was tested. Which “relative reactivity (Polypeptide 3 = 100%)” value did it give?
Answer: The value was 25%.

Question: Which “relative reactivity (Polypeptide 3 = 100%)” value does the source give for {Biotin-aminohexane}-GAPWSPNPWWRGGGG [Polypeptide 3] here?
Answer: The value was 100%.

Question: For {Biotin-aminohexane}-GAPWSPNDWWDGGGG [Polypeptide 27], which “relative reactivity (Polypeptide 3 = 100%)” value is on record?
Answer: Its value is 33%.
